Results: patent US20140087995A1 (published 2014)
Numbered stars: 1 amine (or outer) side, 2 acyl side, 3 side chain; on linkers, the order of the positions; unused ones are H or OH. Bridge positions count the residues as written; N and C are the ends. Side chains are listed from the residue outwards. Ends that are not written are not given here. * marks the point of attachment. C20 diacid = O=C(O)CCCCCCCCCCCCCCCCCCC(=O)*; γGlu = O=C(O)[C@H](CCC(=O)[*:2])N[*:1]

T1: human amylin receptor (amylin 3(a) receptor: human calcitonin receptor plus RAMP-3) (human, UniProt P30988 25-474; O60896 24-148, limits assumed)
T1 sequence (looked up) 1: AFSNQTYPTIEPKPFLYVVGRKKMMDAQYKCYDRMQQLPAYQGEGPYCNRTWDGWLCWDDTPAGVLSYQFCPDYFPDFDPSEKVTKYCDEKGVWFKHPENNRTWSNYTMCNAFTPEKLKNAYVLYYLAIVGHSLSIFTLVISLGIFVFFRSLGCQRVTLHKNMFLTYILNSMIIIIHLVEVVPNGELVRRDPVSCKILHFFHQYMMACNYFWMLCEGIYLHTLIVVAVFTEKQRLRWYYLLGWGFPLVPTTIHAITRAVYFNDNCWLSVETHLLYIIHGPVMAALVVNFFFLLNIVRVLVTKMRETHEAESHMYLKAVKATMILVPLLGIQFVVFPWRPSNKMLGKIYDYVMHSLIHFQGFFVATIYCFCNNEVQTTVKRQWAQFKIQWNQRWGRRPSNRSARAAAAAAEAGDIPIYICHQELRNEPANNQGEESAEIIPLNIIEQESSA
T1 sequence (looked up) 2: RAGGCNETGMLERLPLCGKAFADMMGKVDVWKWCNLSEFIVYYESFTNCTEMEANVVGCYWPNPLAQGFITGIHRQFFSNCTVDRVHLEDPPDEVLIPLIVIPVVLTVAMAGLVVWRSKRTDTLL

T2: human calcitonin receptor (human, UniProt P30988 25-474)
T2 sequence (looked up): T1 sequence (looked up) 1

T3: human calcitonin receptor (human, UniProt P30988 25-474)
T3 sequence (looked up): T1 sequence (looked up) 1

T4: human amylin receptor (amylin 3(a) receptor: human calcitonin receptor with RAMP-3) (human, UniProt P30988 25-474; O60896 24-148, limits assumed)
T4 construct: whole, on cells; Whole cells in the luciferase assay (Assay II a); also called hAmylin-R; hAmylinR
T4 sequence (looked up) 1: T1 sequence (looked up) 1
T4 sequence (looked up) 2: T1 sequence (looked up) 2

B1: N^α1 N^α1-[(4S)-4-carboxy-4-[[(4S)-4-carboxy-4-(19-carboxynonadecanoylamino)butanoyl]amino]butanoyl]-[Glu14,Arg17,Pro21,Pro27]-h-amylin (peptide)
peptide: {C20 diacid-γGlu-γGlu}-KCNTATCATQRLAEFLRHSSPNFGAIPSSTNVGSNTY-NH2
modifications: disulfide 2-7
SMILES: CC[C@H](C)[C@H](NC(=O)[C@H](C)NC(=O)CNC(=O)[C@H](Cc1ccccc1)NC(=O)[C@H](CC(N)=O)NC(=O)[C@@H]1CCCN1C(=O)[C@H](CO)NC(=O)[C@H](CO)NC(=O)[C@H](Cc1c[nH]cn1)NC(=O)[C@H](CCCNC(=N)N)NC(=O)[C@H](CC(C)C)NC(=O)[C@H](Cc1ccccc1)NC(=O)[C@H](CCC(=O)O)NC(=O)[C@H](C)NC(=O)[C@H](CC(C)C)NC(=O)[C@H](CCCNC(=N)N)NC(=O)[C@H](CCC(N)=O)NC(=O)[C@@H](NC(=O)[C@H](C)NC(=O)[C@@H]1CSSC[C@H](NC(=O)[C@H](CCCCN)NC(=O)CC[C@H](NC(=O)CC[C@H](NC(=O)CCCCCCCCCCCCCCCCCCC(=O)O)C(=O)O)C(=O)O)C(=O)N[C@@H](CC(N)=O)C(=O)N[C@@H]([C@@H](C)O)C(=O)N[C@@H](C)C(=O)N[C@@H]([C@@H](C)O)C(=O)N1)[C@@H](C)O)C(=O)N1CCC[C@H]1C(=O)N[C@@H](CO)C(=O)N[C@@H](CO)C(=O)N[C@H](C(=O)N[C@@H](CC(N)=O)C(=O)N[C@H](C(=O)NCC(=O)N[C@@H](CO)C(=O)N[C@@H](CC(N)=O)C(=O)N[C@H](C(=O)N[C@@H](Cc1ccc(O)cc1)C(N)=O)[C@@H](C)O)C(C)C)[C@@H](C)O
notes: also called compound 15
B2: N^ε1-[(4S)-4-carboxy-4-(19-carboxynonadecanoylamino)butanoyl]-[Asp14,Arg17,Pro21,Pro27,Pro34,Arg35]-h-amylin (peptide)
peptide: K([γGlu-C20 diacid])CNTATCATQRLADFLRHSSPNFGAIPSSTNVGPRTY-NH2
modifications: disulfide 2-7; N-terminus assumed
SMILES: CC[C@H](C)[C@H](NC(=O)[C@H](C)NC(=O)CNC(=O)[C@H](Cc1ccccc1)NC(=O)[C@H](CC(N)=O)NC(=O)[C@@H]1CCCN1C(=O)[C@H](CO)NC(=O)[C@H](CO)NC(=O)[C@H](Cc1c[nH]cn1)NC(=O)[C@H](CCCNC(=N)N)NC(=O)[C@H](CC(C)C)NC(=O)[C@H](Cc1ccccc1)NC(=O)[C@H](CC(=O)O)NC(=O)[C@H](C)NC(=O)[C@H](CC(C)C)NC(=O)[C@H](CCCNC(=N)N)NC(=O)[C@H](CCC(N)=O)NC(=O)[C@@H](NC(=O)[C@H](C)NC(=O)[C@@H]1CSSC[C@H](NC(=O)[C@@H](N)CCCCNC(=O)CC[C@H](NC(=O)CCCCCCCCCCCCCCCCCCC(=O)O)C(=O)O)C(=O)N[C@@H](CC(N)=O)C(=O)N[C@@H]([C@@H](C)O)C(=O)N[C@@H](C)C(=O)N[C@@H]([C@@H](C)O)C(=O)N1)[C@@H](C)O)C(=O)N1CCC[C@H]1C(=O)N[C@@H](CO)C(=O)N[C@@H](CO)C(=O)N[C@H](C(=O)N[C@@H](CC(N)=O)C(=O)N[C@H](C(=O)NCC(=O)N1CCC[C@H]1C(=O)N[C@@H](CCCNC(=N)N)C(=O)N[C@H](C(=O)N[C@@H](Cc1ccc(O)cc1)C(N)=O)[C@@H](C)O)C(C)C)[C@@H](C)O
B3: N^ε1-[(4S)-4-carboxy-4-[[(4S)-4-carboxy-4-(19-carboxynonadecanoylamino)butanoyl]amino]butanoyl]-[Arg17,Pro21,Pro27,Pro31,Pro34,Arg35]-h-amylin (peptide)
peptide: K([γGlu-γGlu-C20 diacid])CNTATCATQRLANFLRHSSPNFGAIPSSTPVGPRTY-NH2
modifications: disulfide 2-7; N-terminus assumed
SMILES: CC[C@H](C)[C@H](NC(=O)[C@H](C)NC(=O)CNC(=O)[C@H](Cc1ccccc1)NC(=O)[C@H](CC(N)=O)NC(=O)[C@@H]1CCCN1C(=O)[C@H](CO)NC(=O)[C@H](CO)NC(=O)[C@H](Cc1c[nH]cn1)NC(=O)[C@H](CCCNC(=N)N)NC(=O)[C@H](CC(C)C)NC(=O)[C@H](Cc1ccccc1)NC(=O)[C@H](CC(N)=O)NC(=O)[C@H](C)NC(=O)[C@H](CC(C)C)NC(=O)[C@H](CCCNC(=N)N)NC(=O)[C@H](CCC(N)=O)NC(=O)[C@@H](NC(=O)[C@H](C)NC(=O)[C@@H]1CSSC[C@H](NC(=O)[C@@H](N)CCCCNC(=O)CC[C@H](NC(=O)CC[C@H](NC(=O)CCCCCCCCCCCCCCCCCCC(=O)O)C(=O)O)C(=O)O)C(=O)N[C@@H](CC(N)=O)C(=O)N[C@@H]([C@@H](C)O)C(=O)N[C@@H](C)C(=O)N[C@@H]([C@@H](C)O)C(=O)N1)[C@@H](C)O)C(=O)N1CCC[C@H]1C(=O)N[C@@H](CO)C(=O)N[C@@H](CO)C(=O)N[C@H](C(=O)N1CCC[C@H]1C(=O)N[C@H](C(=O)NCC(=O)N1CCC[C@H]1C(=O)N[C@@H](CCCNC(=N)N)C(=O)N[C@H](C(=O)N[C@@H](Cc1ccc(O)cc1)C(N)=O)[C@@H](C)O)C(C)C)[C@@H](C)O
B4: N^ε1-[(4S)-4-carboxy-4-(19-carboxynonadecanoylamino)butanoyl]-[Glu14,Arg17,Pro21,Pro27,Pro34,Arg35]-h-amylin (peptide)
peptide: K([γGlu-C20 diacid])CNTATCATQRLAEFLRHSSPNFGAIPSSTNVGPRTY-NH2
modifications: disulfide 2-7; N-terminus assumed
SMILES: CC[C@H](C)[C@H](NC(=O)[C@H](C)NC(=O)CNC(=O)[C@H](Cc1ccccc1)NC(=O)[C@H](CC(N)=O)NC(=O)[C@@H]1CCCN1C(=O)[C@H](CO)NC(=O)[C@H](CO)NC(=O)[C@H](Cc1c[nH]cn1)NC(=O)[C@H](CCCNC(=N)N)NC(=O)[C@H](CC(C)C)NC(=O)[C@H](Cc1ccccc1)NC(=O)[C@H](CCC(=O)O)NC(=O)[C@H](C)NC(=O)[C@H](CC(C)C)NC(=O)[C@H](CCCNC(=N)N)NC(=O)[C@H](CCC(N)=O)NC(=O)[C@@H](NC(=O)[C@H](C)NC(=O)[C@@H]1CSSC[C@H](NC(=O)[C@@H](N)CCCCNC(=O)CC[C@H](NC(=O)CCCCCCCCCCCCCCCCCCC(=O)O)C(=O)O)C(=O)N[C@@H](CC(N)=O)C(=O)N[C@@H]([C@@H](C)O)C(=O)N[C@@H](C)C(=O)N[C@@H]([C@@H](C)O)C(=O)N1)[C@@H](C)O)C(=O)N1CCC[C@H]1C(=O)N[C@@H](CO)C(=O)N[C@@H](CO)C(=O)N[C@H](C(=O)N[C@@H](CC(N)=O)C(=O)N[C@H](C(=O)NCC(=O)N1CCC[C@H]1C(=O)N[C@@H](CCCNC(=N)N)C(=O)N[C@H](C(=O)N[C@@H](Cc1ccc(O)cc1)C(N)=O)[C@@H](C)O)C(C)C)[C@@H](C)O
B5: N^ε1-[(4S)--4-carboxy-4-(19-carboxynonadecanoylamino)butanoyl]-[Glu14,Arg17,Pro21,Pro27,Pro37]-h-amylin (peptide)
peptide: K([γGlu-C20 diacid])CNTATCATQRLAEFLRHSSPNFGAIPSSTNVGSNTP-NH2
modifications: disulfide 2-7; N-terminus assumed
SMILES: CC[C@H](C)[C@H](NC(=O)[C@H](C)NC(=O)CNC(=O)[C@H](Cc1ccccc1)NC(=O)[C@H](CC(N)=O)NC(=O)[C@@H]1CCCN1C(=O)[C@H](CO)NC(=O)[C@H](CO)NC(=O)[C@H](Cc1c[nH]cn1)NC(=O)[C@H](CCCNC(=N)N)NC(=O)[C@H](CC(C)C)NC(=O)[C@H](Cc1ccccc1)NC(=O)[C@H](CCC(=O)O)NC(=O)[C@H](C)NC(=O)[C@H](CC(C)C)NC(=O)[C@H](CCCNC(=N)N)NC(=O)[C@H](CCC(N)=O)NC(=O)[C@@H](NC(=O)[C@H](C)NC(=O)[C@@H]1CSSC[C@H](NC(=O)[C@@H](N)CCCCNC(=O)CC[C@H](NC(=O)CCCCCCCCCCCCCCCCCCC(=O)O)C(=O)O)C(=O)N[C@@H](CC(N)=O)C(=O)N[C@@H]([C@@H](C)O)C(=O)N[C@@H](C)C(=O)N[C@@H]([C@@H](C)O)C(=O)N1)[C@@H](C)O)C(=O)N1CCC[C@H]1C(=O)N[C@@H](CO)C(=O)N[C@@H](CO)C(=O)N[C@H](C(=O)N[C@@H](CC(N)=O)C(=O)N[C@H](C(=O)NCC(=O)N[C@@H](CO)C(=O)N[C@@H](CC(N)=O)C(=O)N[C@H](C(=O)N1CCC[C@H]1C(N)=O)[C@@H](C)O)C(C)C)[C@@H](C)O
notes: also called compound 12

Columns and labels:
[1] = molecular target: T1, human amylin receptor (amylin 3(a) …); assay: cell-based or functional assay
[2] = molecular target: T2, human calcitonin receptor; assay: cell-based or functional assay
[3] = molecular target: T1, human amylin receptor (amylin 3(a) …); assay: SPA competition binding, membranes of Amylin 3(a)/CRE-luc BHK cells, displacement of 125I-rat amylin (Assay V)
Summary of the method: (§1)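 Cell membranes were prepared by homogenisation in Na-HEPES/EDTA buffer, pH 7.4, and stored at −80° C. They were then coupled to SPA beads at 35 ng/μL final and exposed to compounds in assay buffer containing CaCl2, MgCl₂, OA and Tween20. After 120 min at 25° C, plates were counted and IC₅₀ derived.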

[4] = molecular target: T3, human calcitonin receptor; assay: cell-based or functional assay; remark: listed apart in the source
[5] = molecular target: T4, human amylin receptor (amylin 3(a) …); assay: SPA competition binding on membranes of BHK cells with human calcitonin receptor + RAMP-3; displacement of 125I-rat amylin (Assay V)
Summary of the method: as §1

Binder | hAmylin-R funct. EC50 [1] | Ratio hCT/hAmylin funct. (hCTR EC50 against hAmylin-R EC50) [2] | hCTR funct. EC50 [2] | IC50 [3] | Ratio hCT/hAmylin funct. [4] | hCTR funct. EC50 (pM) [4] | IC50 [5]
B1 | 386 pM | 8.9 | 3430 pM | 597 pM | – | – | –
B2 | – | – | – | – | 24.9 ratio | 3640 pM | 281 pM
B3 | – | – | – | – | 26 ratio | 8660 pM | 880 pM
B4 | – | – | – | – | 17 ratio | 6380 pM | 163 pM
B5 | 101 pM | 1.8 | 185 pM | 142 pM | – | – | –
